What is called Kd is the concentration at which binding is half-saturated. Read a high Kd as weaker binding.

Kd and protein synthesis inhibition (3H-leucine incorporation) in LCL13271-5E4 cells data for three substances are collected here from patent US20150118260A1.

Experiment [1] addresses porcine CD80 on the porcine CD80-expressing B-cell lymphoma cell line LCL13271-5E4 (porcine).
Experiment [2] shares this target. In words: cell-based or functional assay.
Experiment [3] has the same target. In words: flow cytometry on LCL13271-5E4 cells, MFI against concentration of biotinylated fusion toxin, non-linear least-squares fit. Background: Flow cytometry measures light scatter and fluorescence of single cells or particles in a stream.

Like-named read-outs stand apart in the source and are kept apart here.

Regarding “DT390-pCTLA4-Non-N-Gly-6xHis (single non-N-glycosylated soluble porcine CTLA-4 fusion toxin)”, the Kd in experiment [1] worked out at 2 nM. For the same substance, the protein synthesis inhibition (3H-leucine incorporation) in LCL13271-5E4 cells in experiment [2] turned out to be 0.33. In experiment [2], “DT390-pCTLA-4-Gly-6xHis (single glycosylated soluble porcine CTLA-4 fusion toxin)” showed a protein synthesis inhibition (3H-leucine incorporation) in LCL13271-5E4 cells of 0.67. In experiment [3], this substance had a Kd of 17.3 nM. In experiment [1], “DT390-bi-pCTLA-4-Non-N-Gly-6xHis (bi-non-N-glycosylated soluble porcine CTLA-4 fusion toxin)” returned a Kd of 4.7 nM.
